From the supplement of paper PMC5998384

Experiments:
HeLa Kyoto [1] = assay: solubility in G1/S (NP-40 vs SDS abundance) (log2 ratio); higher = more soluble; conditions: cell cycle stage: G1/S
HeLa Kyoto [2] = assay: solubility change mitosis vs G1/S (difference of NP-40 vs SDS log2 ratios) (log2 ratio difference); higher = more soluble in mitosis
HeLa Kyoto [3] = assay: melting temperature (median over replicates), in situ; higher = more thermally stable
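Wherever melting temperature (median over replicates), in situ is given: HeLa Kyoto cells synchronized by double thymidine or nocodazole block, proteins quantified by TMT10plex mass spectrometry, three independent biological replicates.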
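Wherever solubility change mitosis vs G1/S (difference of NP-40 vs SDS log2 ratios) is given: synchronized HeLa Kyoto cells (double thymidine block for G1/S, nocodazole release for mitosis), protein amounts in NP-40 versus SDS lysates quantified by mass spectrometry, three biological replicates.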
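Wherever solubility in G1/S (NP-40 vs SDS abundance) is given: HeLa Kyoto cells arrested at G1/S by double thymidine block, proteins quantified by TMT10plex mass spectrometry in mild NP-40 versus SDS extracts, three biological replicates.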

Row | Sequence | solubility in G1/S (log2) (HeLa Kyoto [1]) | solubility change mitosis (log2) (HeLa Kyoto [2]) | melting temperature (HeLa Kyoto [3]; cell cycle stage: G1/S) [°C] | melting temperature (HeLa Kyoto [3]; cell cycle stage: mitosis) [°C]
1 | MKVLLLKDAKEDDCGQDPYIRELGLYGLEATLIPVLSFEFLSLPSFSEKLSHPEDYGGLIFTSPRAVEAAELCLEQNNKTEVWERSLKEKWNAKSVYVVGNATASLVSKIGLDTEGETCGNAEKLAEYICSRESSALPLLFPCGNLKREILPKALKDKGIAMESITVYQTVAHPGIQGNLNSYYSQQGVPASITFFSPSGLTYSLKHIQELSGDNIDQIKFAAIGPTTARALAAQGLPVSCTAESPTPQALATGIRKALQPHGCC [UROS] | 0.234 | 0.14 | 51.5 | 52.4
2 | MLGWIKRLIRMVFQQVGVSMQSVLWSRKPYGSSRSIVRKIGTNLSLIQCPRVQFQINSHATEWSPSHPGEDAVASFADVGWVAKEEGECSARLRTEVRSRPPLQDDLLFFEKAPSRQISLPDLSQEEPQLKTPALANEEALQKICALENELAALRAQIAKIVTQQEQQNLTAGDLDSTTFGTIPPHPPPPPPPLPPPALGLHQSTSAVDLIKERREKRANAGKTLVKNNPKKPEMPNMLEILKEMNSVKLRSVKRSEQDVKPKPVDATDPAALIAEALKKKFAYRYRSDSQDEVEKGIPKSESEATSERVLFGPHMLKPTGKMKALIENVSDS [MTFR1] | 0.556 | 0.0301 | 49.3 | 52.1
3 | MLQGHSSVFQALLGTFFTWGMTAAGAALVFVFSSGQRRILDGSLGFAAGVMLAASYWSLLAPAVEMATSSGGFGAFAFFPVAVGFTLGAAFVYLADLLMPHLGAAEDPQTTLALNFGSTLMKKKSDPEGPALLFPESELSIRIGRAGLLSDKSENGEAYQRKKAAATGLPEGPAVPVPSRGNLAQPGGSSWRRIALLILAITIHNVPEGLAVGVGFGAIEKTASATFESARNLAIGIGIQNFPEGLAVSLPLRGAGFSTWRAFWYGQLSGMVEPLAGVFGAFAVVLAEPILPYALAFAAGAMVYVVMDDIIPEAQISGNGKLASWASILGFVVMMSLDVGLG [SLC39A11] | 0.00506 | -0.134 | 56 | 51.9
4 | MLRREARLRREYLYRKAREEAQRSAQERKERLRRALEENRLIPTELRREALALQGSLEFDDAGGEGVTSHVDDEYRWAGVEDPKVMITTSRDPSSRLKMFAKELKLVFPGAQRMNRGRHEVGALVRACKANGVTDLLVVHEHRGTPVGLIVSHLPFGPTAYFTLCNVVMRHDIPDLGTMSEAKPHLITHGFSSRLGKRVSDILRYLFPVPKDDSHRVITFANQDDYISFRHHVYKKTDHRNVELTEVGPRFELKLYMIRLGTLEQEATADVEWRWHPYTNTARKRVFLSTE [IMP4] | -1.9 | 0.914 | – | 51.4
5 | MMATPNQTACNAESPVALEEAKTSGAPGSPQTPPERHDSGGSLPLTPRMESHSEDEDLAGAVGGLGWNSRSPRTQSPGGCSAEAVLARKKHRRRPSKRKRHWRPYLELSWAEKQQRDERQSQRASRVREEMFAKGQPVAPYNTTQFLMNDRDPEEPNLDVPHGISHPGSSGESEAGDSDGRGRAHGEFQRKDFSETYERFHTESLQGRSKQELVRDYLELEKRLSQAEEETRRLQQLQACTGQQSCRQVEELAAEVQRLRTENQRLRQENQMWNREGCRCDEEPGT [HEXIM2] | 0.492 | 0.139 | 54.6 | 53.4
6 | MNRLPDDYDPYAVEEPSDEEPALSSSEDEVDVLLHGTPDQKRKLIRECLTGESESSSEDEFEKEMEAELNSTMKTMEDKLSSLGTGSSSGNGKVATAPTRYYDDIYFDSDSEDEDRAVQVTKKKKKKQHKIPTNDELLYDPEKDNRDQAWVDAQRRGYHGLGPQRSRQQQPVPNSDAVLNCPACMTTLCLDCQRHESYKTQYRAMFVMNCSINKEEVLRYKASENRKKRRVHKKMRSNREDAAEKAETDVEEIYHPVMCTECSTEVAVYDKDEVFHFFNVLASHS [EAPP] | 0.159 | 0.14 | 50.3 | –
